Laboratory results taken from patent US20040216177A1, “Congenic rats containing a mutant GPR10 gene” (OTSUKA PHARMACEUTICAL CO., LTD., priority 2003, published 2004).
One block for each substance: values may come before it.

Assays:
[1] = target: cloned human wild-type GPR10 (370 amino acids) (human) (UniProt P49683); assay: displacement of 0.05 nM [125I]PrRP from CHO-hGPR10 cell membranes, 2-site competition model, site 2
[2] = target: cloned human wild-type GPR10 (370 amino acids) (human) (UniProt P49683); assay: cell-based or functional assay
[3] = target: cloned human NH2-terminus truncated (mutant) GPR10 (306 amino acids) (human) (UniProt P49683); assay: cell-based or functional assay
[4] = target: cloned human wild-type GPR10 (370 amino acids) (human) (UniProt P49683); assay: displacement of 0.05 nM [125I]PrRP from CHO-hGPR10 cell membranes, 2-site competition model, site 1
[5] = target: cloned human wild-type GPR10 (370 amino acids) (human) (UniProt P49683); assay: radioligand saturation binding on CHO-hGPR10 cell membranes, 2-site model, site 2
[6] = target: cloned human wild-type GPR10 (370 amino acids) (human) (UniProt P49683); assay: radioligand saturation binding on CHO-hGPR10 cell membranes, 2-site model, site 1
[7] = target: cloned human wild-type GPR10 (370 amino acids) (human) (UniProt P49683); assay: saturation radioligand binding on CHO-hGPR10 cell membranes; non-specific binding determined with 1.0 uM unlabelled PrRP
[8] = target: cloned human wild-type GPR10 (370 amino acids) (human) (UniProt P49683); assay: radioligand saturation binding on CHO-hGPR10 cell membranes, at [125I]PrRP concentrations near the KD
[9] = target: T1, cloned human NH2-terminus truncated GPR10 (Homo sapiens, UniProt P49683, L65M); assay: [3H]arachidonic acid release from CHO-T-hGPR10 cells; format: cell-based
T1 construct: expressed in transfected cells
T1 sequence (P49683 65-370 L65M limits assumed): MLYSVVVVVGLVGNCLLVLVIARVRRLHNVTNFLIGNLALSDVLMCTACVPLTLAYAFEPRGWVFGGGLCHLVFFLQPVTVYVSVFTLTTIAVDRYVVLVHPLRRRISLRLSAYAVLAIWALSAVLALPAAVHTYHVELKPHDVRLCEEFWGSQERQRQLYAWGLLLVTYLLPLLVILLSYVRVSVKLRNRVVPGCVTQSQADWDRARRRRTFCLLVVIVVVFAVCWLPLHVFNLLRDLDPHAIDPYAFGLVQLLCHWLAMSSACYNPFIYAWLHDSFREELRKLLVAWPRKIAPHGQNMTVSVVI
Experimental: CHO cells were generated to stably express a cloned truncated form of the human GPR10, as described in Examples 2-3. These CHO-T-hGPR10 cells, which express a truncation of the first 64 amino acids present in the wild-type cloned human GPR10, were cultured in F-12 HAM medium, supplemented with 2.0 mM L-glutamine, 10% (v/v) dialyzed fetal bovine serum, 1.0% hypoxanthine-thymidine supplement and 1.0% G-418 selection agent. All of the cells were maintained at 37° C. in an atmosphere of 5% CO2 and passaged when ˜80% confluent using a non-enzymatic cell dissociation buffer (Sigma-Aldrich Corporation). CHO-T-hGPR10 cells were harvested when ˜70% confluent for use in [^3H]arachidonic acid release assays carried out as described below.
The effects of PrRP and Compound X on basal [^3H]arachidonic acid release from CHO-T-hGPR10 cells was performed using exactly the same assay procedure described in Example 7. PrRP and Compound X were each tested in triplicate at concentrations in the 0.01 to 10,000 nM range.
The mean radioactive counts (±SEM, N=3) detected in each reaction triplicate were calculated, and binding isotherms were analyzed by non-linear regression, using GraphPad Prism version 3.00 for Windows, to estimate the potency (EC50 with 95% confidence interval) and relative intrinsic activity (Emax as % basal release±SEM) of PrRP and Compound X. The results are shown in FIG. 19. […]

[10] = target: T2, cloned human wild-type GPR10 (Homo sapiens, UniProt P49683); assay: [3H]arachidonic acid release from CHO-hGPR10 cells; format: cell-based
T2 construct: For cloning of human wild-type GPR10 ORF, a DNA fragment was amplified from human genomic DNA; expressed in transfected cells
T2 sequence (P49683 1-370): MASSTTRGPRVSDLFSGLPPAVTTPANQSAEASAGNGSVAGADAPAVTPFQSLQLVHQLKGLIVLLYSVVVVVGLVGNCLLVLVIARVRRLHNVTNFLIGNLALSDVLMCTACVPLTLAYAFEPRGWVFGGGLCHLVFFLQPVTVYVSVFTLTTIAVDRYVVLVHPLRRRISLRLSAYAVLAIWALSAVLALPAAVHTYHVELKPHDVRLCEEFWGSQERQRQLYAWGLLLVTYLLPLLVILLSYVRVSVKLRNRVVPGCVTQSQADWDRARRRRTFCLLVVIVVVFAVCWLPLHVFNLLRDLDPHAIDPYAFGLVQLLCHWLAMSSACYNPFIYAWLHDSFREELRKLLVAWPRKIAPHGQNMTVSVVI
Experimental: CHO cells stably expressing cloned human wild-type GPR10 (CHO-hGPR10 cells) were generated as described in Examples 2-3. CHO-hGPR10 were cultured in F-12 HAM medium supplemented with 2.0 mM L-glutamine, 10% (v/v) dialyzed fetal bovine serum, 1.0% hypoxanthine-thymidine supplement, and 1.0% G-418 selection agent. All of the cells were maintained at 37° C. in an atmosphere of 5% CO2 and passaged when ˜80% confluent using a non-enzymatic cell dissociation buffer (Sigma-Aldrich Corporation). CHO-hGPR10 cells were harvested when ˜70% confluent for use in [^3H]arachidonic acid release assays, which were performed as follows:
CHO-hGPR10 cells were plated at a density of 150,000 cells/well in 12 well tissue culture plates, rinsed 24 hr later with calcium and magnesium free Hank's Balanced Salt Solution (Gibco-BRL), and left to incubate for 4 hr in F-12 culture medium (1.0 ml/well) containing 100 nCi/ml of [^3H]arachidonic acid. The cells were then rinsed and incubated for 5 min in 1.0 ml/well of Hank's Balanced Salt Solution (Invitrogen Corp. CA) containing 20 mM HEPES buffer (Sigma-Aldrich Corp.) and 0.1% (w/v) fatty acid-free bovine serum albumin (Sigma-Aldrich Corp.). After repeating this rinse and incubation procedure 3 times, 1.0 ml of vehicle, PrRP or Compound X was added to each well and plates were left to incubate for 30 min at 37° C. 400 μl of the extracellular liquid present in each well was mixed with 2.6 ml of liquid scintillation cocktail and counted by liquid scintillation counting (1272 Clinigamma, LKB/Wallach) to calculate the total [^3H] radioactivity present in each well. All of the reactions were performed in triplicate, at concentrations in the 0.01 to 10,000 nM range, to determine the effects of PrRP and Compound X on basal [^3H]arachidonic acid release from CHO-hGPR10 cells. […]

[11] = target: T2, cloned human wild-type GPR10; assay: [125I]PrRP competition binding to CHO-hGPR10 cell membranes; details: 2-site competition model, site 2, 0.05 nM [125I]PrRP
Experimental: Next, PrRP and compound X (molecular weight=318.38) were studied in quadruplicate at nanomolar to micromolar concentrations (PrRP at 0.01, 0.1, 0.5, 1, 5, 10, 50 and 100 nM; Compound X at 100, 300, 1000, 3000 and 10,000 nM) to determine their respective displacement of [^125I]PrRP (Amersham Biosciences UK Limited; catalog #IM341, Specific Activity=2000 Ci/mmol) binding to CHO-hGPR10 cell membranes. Membranes (20 μg protein) were incubated with 0.05 nM [^125I]PrRP, Compound X or vehicle, and buffer comprising 20 mM Tris (pH 7.4), 2.0 mM EGTA, 5.0 mM C4H6MgO4, 0.5 mM phenylmethylsulfonyl fluoride, 1.0 μg/ml pepstatin, 1.0 μl/ml protease inhibitor cocktail, and 0.1% (w/v) BSA. All of the reactions were performed in 96-well Basic Flashplates®, terminated by centrifugation (3,000 g×7 min) after a 90 min incubation at room temperature, and radioactive counts associated with membrane-bound [^125I]PrRP were counted in each well using a Microbeta TriLux microscintillation counter. Non-linear regression analysis of the competition binding data was used to calculate inhibition binding constants (IC50 and Ki), which is the concentration of Compound X that occupies half of the CHO-hGPR10 receptors specifically bound by 0.05 nM [^125I]PrRP. […]

[12] = rats; cited from earlier work

IC50 [1]: 500 pM
Ki [1]: 290 pM
[^3H]arachidonic acid release from CHO-hGPR10 cells, EC50 [2]: 43 pM
[^3H]arachidonic acid release from CHO-hGPR10 cells, Emax (as % 1.0 nM PrRP) [2]: 75.3%
[^3H]arachidonic acid release from CHO-hGPR10 cells, Emax (as a % of 1 nM PrRP) [2]: 105%
[^3H]arachidonic acid release from CHO-T-hGPR10 cells, Emax (as % basal release) [3]: 3.6%
IC50 [4]: 0.7 pM
Ki [4]: 0.4 pM
Substance: PrRP (prolactin-releasing peptide), unlabelled

Kd [5]: 72 pM
Kd [6]: 70 pM
EC50 (read off the curve) [7]: 70 pM
percent of total binding that was specific [8]: > 80%
Substance: [^125I]PrRP (radioiodinated prolactin-releasing peptide)

Emax, relative intrinsic activity ([9]; 1.0 nM PrRP alone, as % basal release): 3.6±4.4%
activity on basal [3H]arachidonic acid release ([9]; 0.01 to 10,000 nM): inactive
Emax, relative intrinsic activity ([10]; 1.0 μM PrRP alone (Example 9)): 75.3±6.1%
Emax, relative intrinsic activity ([10]; as % of 1 nM PrRP, tested alone): 105.4±6.1%
EC50 ([10]; tested alone): 43 pM
Ki [11]: 290 pM
IC50 ([11]; read-out: IC50 (2) displacement of [125I]PrRP): 500 pM
Substance: prolactin-releasing peptide [PrRP]
ACTH [12]: increase
body weight [12]: reduce
food intake [12]: reduce
plasma oxytocin [12]: increase
wakefulness [12]: promote wakefulness
